The source of these data is paper PMC2133002 (The Journal of Cell Biology, 1998).

Holding throughout (assay): co-IP
In test [1] the target is rbet1 (rat (endogenous in rat liver)) (UniProt Q62896).
Test [2] concerns the target membrin (rat (endogenous in rat liver)) (UniProt O35165).
Test [3] has as its target T1, Golgi SNARE of 28 kD (GOS-28) (rat (endogenous in rat liver), UniProt Q62931 1-250).
T1 sequence: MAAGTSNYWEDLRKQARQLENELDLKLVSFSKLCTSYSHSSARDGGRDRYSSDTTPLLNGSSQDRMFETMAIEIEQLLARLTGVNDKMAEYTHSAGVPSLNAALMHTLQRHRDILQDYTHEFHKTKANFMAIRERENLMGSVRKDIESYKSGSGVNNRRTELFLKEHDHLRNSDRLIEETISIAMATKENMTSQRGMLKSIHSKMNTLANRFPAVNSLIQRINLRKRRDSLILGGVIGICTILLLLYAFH

For another test, the target named is T2, membrin (rat (endogenous in rat liver), UniProt O35165 1-212).
T2 sequence: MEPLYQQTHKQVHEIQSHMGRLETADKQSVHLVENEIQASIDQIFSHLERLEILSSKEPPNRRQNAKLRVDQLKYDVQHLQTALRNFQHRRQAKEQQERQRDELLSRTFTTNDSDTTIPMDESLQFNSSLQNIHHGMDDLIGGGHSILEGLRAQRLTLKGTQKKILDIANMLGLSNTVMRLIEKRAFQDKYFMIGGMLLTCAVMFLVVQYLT

The target in a further test is T3, rbet1 (rat (endogenous in rat liver), UniProt Q62896 1-118).
T3 sequence: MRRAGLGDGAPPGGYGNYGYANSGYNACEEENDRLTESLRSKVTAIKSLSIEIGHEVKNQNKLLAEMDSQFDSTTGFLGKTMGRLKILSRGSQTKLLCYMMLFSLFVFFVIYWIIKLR

The molecule “syntaxin 5, 31-kD form (degradation product of the 41-kD isoform) (domain or fragment)” registered an efficiency of coprecipitation (arbitrary units) in test [1] of 139.

The molecule “rbet1 (from UniProt Q62896 1-118) (natural protein)” displayed an efficiency of coprecipitation (arbitrary units) in test [2] of 115.

Molecule “rsec22b (from UniProt Q4KM74 1-215) (natural protein)” registered an efficiency of coprecipitation (arbitrary units) in test [1] of 247.

Take “membrin (from UniProt O35165 1-212) (natural protein)”: the efficiency of coprecipitation (arbitrary units) in test [1] came to 308.

B1: syntaxin 5, 41-kD isoform (natural protein)
chain: MIPRKRYGSKNTDQGVYLGLSKTQVLSPATAINSSSDIAPLPTPVALVPSPPDTMSCRDRTQEFLSACKSLQSRQNGIQTNKPALHATRQCSEFTLMARRIGKDLSNTFAKLEKLTILAKRKSLFDDKAVEIEELTYIIKQDINSLNKQIAQLQDFVRAKGSQSGRHLQTHSNTIVVSLQSKLASMSNDFKSVLEVRTENLKQQRNRREQFSRAPVSALPLAPNNLGGGPIVLGGESRASRDVAIDMMDPRTSQQLQLIDEQDSYIQSRADTMQNIESTIVELGSIFQQLAHMVKEQEETIQRIDENVLGAQLDVEAAHSEILKYFQSVTSNRWLMVKIFLILIVFFIIFVVFLA
As to B1, the results for the efficiency of coprecipitation (in test [3]; in the test with membrin; with rbet1) were 30 arbitrary units, 25 arbitrary units and 129 arbitrary units, respectively.

B2: syntaxin 5, 34-kD isoform (natural protein)
chain: MSCRDRTQEFLSACKSLQSRQNGIQTNKPALHATRQCSEFTLMARRIGKDLSNTFAKLEKLTILAKRKSLFDDKAVEIEELTYIIKQDINSLNKQIAQLQDFVRAKGSQSGRHLQTHSNTIVVSLQSKLASMSNDFKSVLEVRTENLKQQRNRREQFSRAPVSALPLAPNNLGGGPIVLGGESRASRDVAIDMMDPRTSQQLQLIDEQDSYIQSRADTMQNIESTIVELGSIFQQLAHMVKEQEETIQRIDENVLGAQLDVEAAHSEILKYFQSVTSNRWLMVKIFLILIVFFIIFVVFLA
As for B2, the efficiency of coprecipitation is 134 arbitrary units in test [3], 37 arbitrary units in the test with membrin and 128 arbitrary units in the test with rbet1.
